For data set [1], the target named is T1, GST-FBXA-192 FL (Caenorhabditis elegans, UniProt Q9XUX2 1-401).
T1 sequence: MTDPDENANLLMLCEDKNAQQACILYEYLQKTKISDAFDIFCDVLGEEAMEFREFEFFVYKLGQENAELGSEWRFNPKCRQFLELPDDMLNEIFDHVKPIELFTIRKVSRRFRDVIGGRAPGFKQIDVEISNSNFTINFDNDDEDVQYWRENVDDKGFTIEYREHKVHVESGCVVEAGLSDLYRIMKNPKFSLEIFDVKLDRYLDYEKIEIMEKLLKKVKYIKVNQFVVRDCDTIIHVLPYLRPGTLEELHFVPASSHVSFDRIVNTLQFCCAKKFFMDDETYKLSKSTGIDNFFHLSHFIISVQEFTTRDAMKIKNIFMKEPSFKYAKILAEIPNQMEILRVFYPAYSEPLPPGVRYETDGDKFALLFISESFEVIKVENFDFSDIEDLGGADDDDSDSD
Briefly: EMSA; 50 mM Tris-HCl pH 7.5, 150 mM NaCl, 1 mM DTT, protease inhibitors, 2.5% glycerol, 77.3 nM DNA, 25 C 15 min; native 1.5% agarose gel in TBE at 4 C, SYBR Gold stain. Conditions: protein: recombinant; tags: N-terminal GST; blunt.

The target in data set [2] is T2, GST-FBXA-215 FL (Caenorhabditis elegans, UniProt A0A8S4Q9N7 1-401).
T2 sequence: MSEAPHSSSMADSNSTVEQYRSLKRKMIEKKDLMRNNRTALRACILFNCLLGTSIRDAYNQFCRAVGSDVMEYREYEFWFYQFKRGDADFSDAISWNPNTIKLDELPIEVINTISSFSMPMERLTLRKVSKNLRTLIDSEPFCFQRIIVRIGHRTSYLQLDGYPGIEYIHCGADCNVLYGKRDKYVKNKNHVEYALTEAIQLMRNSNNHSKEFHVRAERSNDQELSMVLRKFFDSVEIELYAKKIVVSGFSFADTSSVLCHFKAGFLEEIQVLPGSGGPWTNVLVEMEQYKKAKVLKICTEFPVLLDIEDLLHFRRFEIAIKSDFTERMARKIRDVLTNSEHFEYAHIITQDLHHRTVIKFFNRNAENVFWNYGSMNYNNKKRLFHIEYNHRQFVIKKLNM
The data set is described as above. Conditions: protein: recombinant; tags: N-terminal GST; blunt.

B1: Mos1 right TIR (IRR100) (dsDNA)
DNA 1: TTTCTTTTTCCACAAAATTTAACGTGTTTTTTGATTTAAAAAAAACGACATTTCATACTTGTACACCTGA
DNA 2: TCAGGTGTACAAGTATGAAATGTCGTTTTTTTTAAATCAAAAAACACGTTAAATTTTGTGGAAAAAGAAA
Take B1: the binding result in data set [1] and in data set [2] was “no binding” in each case.

For the origin of these results see article PMC12062965, “Transposable Elements Drive Regulatory and Functional Innovation of F-box Genes”.
